Test results reported in US8088387B2, “Method of targeting specific cell populations using cell-binding agent maytansinoid conjugates linked via a non-cleavable linker, said conjugates, and methods of making said conjugates” (Immunogen Inc., priority 2003, dated 2012).

Columns and labels:
esterase = esterase cleavage of the C-3 ester; assay type: in vitro ADME
From the text: Some linkers can be cleaved by esterases. Again only certain esters can be cleaved by esterases present inside or outside cells. Esters are formed by the condensation of a carboxylic acid and an alcohol. Simple esters are esters produced with simple alcohols, such as aliphatic alcohols, and small cyclic and small aromatic alcohols.

L1210 cells = conditions: treatment of L1210 cells in vivo; cited from earlier work
[1] = system: P388 murine leukemic cell suspension; conditions: in vitro; most sensitive line; cited from earlier work
[2] = system: L1210 murine leukemic cell suspension; conditions: in vitro; cited from earlier work
[3] = system: LY5178 murine leukemic cell suspension; conditions: in vitro; cited from earlier work
[4] = system: human nasopharyngeal carcinoma cells; conditions: cited from earlier work
[5] = system: human acute lymphoblastic leukemia line C.E.M.; conditions: cited from earlier work
[6] = system: P388 lymphocytic leukemia system; conditions: in vivo; cited from earlier work
[7] = system: L1210 mouse leukemia system; conditions: cited from earlier work
[8] = system: Lewis lung carcinoma system; conditions: cited from earlier work
[9] = system: human B-16 melanocarcinoma system; conditions: cited from earlier work
[10] = human, in vivo; cited from earlier work
COLO 205 cells = experiment: indirect FACS binding assay on COLO 205 cells; design: species or system human; conditions: 5×10^3 cells per well, three hour primary incubation on ice
Protocol: The inventors carried out binding and cytotoxicity studies on the huC242-non-S-containing non-cleavable linker-DM1 conjugate. First, the binding affinities of huC242 antibody, huC242-SMNP-DM3, and huC242-non-S-containing non-cleavable linker-DM1 to COLO 205 cells were compared. 5×10^3 cells per well were used, with a three hour primary incubation on ice. The huC242-non-S-containing non-cleavable linker-DM1 conjugate had about a two-fold higher apparent dissociation constant than free antibody (see FIG. 23).

SKBR3 cells = experiment: continuous exposure clonogenic assay, antigen-positive cells; assay type: cell-based, human
From the text: (§1) Cell-binding agent maytansinoid conjugates of the invention can be evaluated for their ability to suppress proliferation of various cell lines in vitro. For example, cell lines such as the human colon carcinoma line COLO205, the human melanoma cell line A375, the human myeloid leukemia cell line HL60, the human breast carcinoma line SKBR3, or the human epidermoid carcinoma cell line KB can be used for the assessment of cytotoxicity of these conjugates. Cells to be evaluated can be exposed to the compounds for 24 hours and the surviving fractions of cells measured in direct assays by known methods. (See, e.g. Goldmacher et al., 135 J. Immunol. 3648-3651 (1985), and Goldmacher et al., 102 J. Cell Biol. 1312-1319 (1986).) IC50 values can then be calculated from the results of the assays.
(§2) The in vitro cytotoxicity and specificity of the huC242-SMCC-DM1 conjugate were evaluated using a continuous exposure clonogenic assay.

A375 cells = experiment: continuous exposure clonogenic assay, antigen-negative cells; assay type: cell-based, human
From the text: as §1, §2

[11] = in vitro clonogenic / indirect cytotoxicity assays, cell line not given; assay type: cell-based; conditions: clonogenic (FIG. 6A-C) and indirect cytotoxicity assays (FIG. 7)
From the text: as §1

[12] = system: COLO 205 colon tumor xenografts; experiment: COLO 205 colon tumor xenografts in SCID mice; assay type: in vivo
Protocol: (§3) Antibody conjugates with DM1 using the SMCC linker show anti-tumor efficacy against human tumor xenografts in mice (FIGS. 10A-C). […] In this experiment, one group of five animals bearing established subcutaneous tumors was treated with huC242-SMCC-DM1 at a dose of 150 μg/kg of conjugated DM1. Tumor sizes were measured periodically and graphed vs. time after tumor inoculation. […] In this experiment, three groups of five animals each bearing established subcutaneous SNU tumors were treated with huC242-SMCC-DM1 at doses of 15 μg/kg, 30 μg/kg, and 60 μg/kg of conjugated DM1, respectively. Tumor sizes were measured periodically and graphed vs. time after tumor inoculation.

[13] = system: SNU16 human gastric tumor xenografts; experiment: SNU16 human gastric tumor xenografts in SCID mice; assay type: in vivo
Protocol: as §3

[14] = plasma clearance of conjugates; assay type: in vivo
From the text: This is in sharp contrast to plasma clearance of conjugates prepared with relatively labile disulfide bonds such as huC242-SPP-DM1. […] The non-cleavable SMCC linkage is therefore much more resistant to maytansinoid-linker cleavage activities present in vivo than the SPP-DM1 conjugate. […] This increased exposure could have substantial impact on drug efficacy in some cases.

[15] = acute toxicity test, single intravenous dose; assay type: in vivo, female CD-1 mice; conditions: single intravenous dose
Protocol: Maytansinoid conjugates prepared with non-cleavable linkers such as SMCC show an unexpected increased tolerability in mice compared with conjugates prepared with cleavable disulfide linkers. An acute toxicity test with a single intravenous dose was carried out in female CD-1 mice. A comparison of the tolerability of a huC242-SMCC-DM1 conjugate (non-cleavable) with huC242 conjugates prepared with linkers containing cleavable disulfide bonds was conducted by monitoring the death of mice (FIGS. 12A and B) and signs of toxicity (FIGS. 12C and D) over a series of four escalating doses of each conjugate. The maximum tolerated dose (MTD) for the SMCC-DM1 conjugate was greater than the highest dose tested (150 mg/kg) while the MTD for the disulfide-linked conjugate SPP-DM1 was in the range of 45-90 mg/kg.

COLO205 cells = experiment: cell cycle arrest by flow cytometry; assay type: cell-based, human; conditions: 30 hours post-treatment
Protocol: Maytansinoid conjugates are thought to impart their cell destroying activity through the inhibition of microtubule polymerization. This inhibition of microtubule polymerization leads to an arrest of the cell cycle principally at G2/M. The antigen-dependent arrest of cells at G2/M by antibody-maytansinoid conjugates can be monitored by flow cytometry analysis (FIG. 13). Treatment of COLO205 cells with huC242-SPP-DM1 or huC242-SMCC-DM1 conjugate results in a complete G2/M arrest by 6-10 hours. […] The difference in the durability of the activity of these two conjugates is also reflected in percentage of dead cells at the 30 hour time point, as judged by a dye exclusion assay using trypan blue.

COLO 205 cell line = experiment: cell destroying activity, antigen-positive cells (bystander study); assay type: cell-based, human; conditions: COLO 205 cultured separately
From the text: (§4) An additional aspect of conjugates prepared with non-cleavable linkers compared to conjugates that have cleavable disulfide linkers is the absence of activity toward antigen-negative cells when in close proximity to antigen-positive cells, termed here the bystander effect. That is, the conjugates prepared with non-cleavable linkers have minimal bystander activity. […] This minimal bystander activity of the non-cleavable conjugate, as measured in this in vitro assay, may contribute to the increased tolerability of conjugate with non-cleavable linkers observed in acute toxicity studies.

Namalwa cells = experiment: cell destroying activity, antigen-negative cells (bystander study); assay type: cell-based
From the text: as §4

[16] = Pharmacokinetic Studies of huC242-SPP-DM1 and huC242-SCC-DM1 conjugates inCD-1 Mice Plasma clearance curves and Pharmacokinetic parameters
From the text: Table printed on a drawing sheet, FIG. 11
Title: Pharmacokinetic Studies of huC242-SPP-DM1 and huC242-SCC-DM1 conjugates inCD-1 Mice Plasma clearance curves and Pharmacokinetic parameters
First reader's note: Rows without -DM1 (huC242-SMCC, huC242-SPP) appear to be the antibody component of the same conjugates, as in the plot legend; study in CD-1 mice.

[17] = 150 μg/kg of conjugated DM1, of five animals

Molecule: COc1cc2cc(c1Cl)N(C)C(=O)C[C@H](OC(=O)[C@H](C)N(C)C(C)=O)[C@]1(C)O[C@H]1[C@H](C)[C@@H]1C[C@@](O)(NC(=O)O1)[C@H](OC)/C=C/C=C(\C)C2 [Maytansine]
- cleavage of the ester at C-3 by esterases (esterase): no esterase that cleaved the ester at C-3
- cells accumulating in mitosis (L1210 cells): 67%
- inhibitory doses [1]: 10^−3 to 10^−1 μg/ml
- inhibitory doses [2]: 10^−3 to 10^−1 μg/ml
- inhibitory doses [3]: 10^−3 to 10^−1 μg/ml
- inhibition of in vitro growth [4]: active inhibitor
- lowest inhibitory concentration [5]: 10^−7 μg/ml
- dosage range over which tumor growth was inhibited [6]: 50- to 100 fold
- inhibitory activity in vivo [7]: significant inhibitory activity
- inhibitory activity in vivo [8]: significant inhibitory activity
- inhibitory activity in vivo [9]: significant inhibitory activity
- clinical outcome / adverse effects [10]: not favorable due to a number of side effects

B1: huC242-SMCC-DM1: huC242 antibody linked to maytansinoid DM1 via the non-cleavable linker SMCC (conjugate, chains of the INN, looked up)
VH: QVQLVQSGAEVKKPGETVKISCKASDYTFTYYGMNWVKQAPGQGLKWMGWIDTTTGEPTYAQKFQGRIAFSLETSASTAYLQIKSLKSEDTATYFCARRGPYNWYFDVWGQGTTVTVSS
VL: DIVMTQSPLSVPVTPGEPVSISCRSSKSLLHSNGNTYLYWFLQRPGQSPQLLIYRMSNLVSGVPDRFSGSGSGTAFTLRISRVEAEDVGVYYCLQHLEYPFTFGPGTKLELK
modifications: DM1 via SMCC linker
- Kd (COLO 205 cells): 552 pM
- IC50 (SKBR3 cells): 3.5 pM
- fold less sensitive than SKBR3 cells (A375 cells; antigen negative A375 vs antigen positive SKBR3): about 800 fold
- IC50 (A375 cells; antigen-negative A375 cells, continuous exposure clonogenic assay): > 3000 pM
- potency compared to conjugates prepared with disulfide-containing linkers [11]: equal or greater potency
- tumor response ([12]; 150 μg/kg of conjugated DM1, five animals, established subcutaneous tumors): All five treated animals had a complete remission
- animals that relapsed after complete remission [12, 17]: three
- animals tumor-free until termination of the experiment [12, 17]: two
- effect on mouse body weight ([12]; at conjugate doses with anti-tumor activity): no effect on mouse body weight
- time some mice remained free of detectable tumors post-treatment ([12]; sentence citing FIG. 10B, text prints COLO 205): over 2 months
- tumor response (sentence citing FIG. 10B) ([12]; text prints COLO 205 colon carcinoma xenografts): complete regression of tumors
- antitumor effect ([13]; 15, 30 and 60 μg/kg of conjugated DM1, established subcutaneous SNU tumors): dose-dependent antitumor effect
- effect on mouse body weight ([13]; at active conjugate concentration): no effect on mouse body weight
- increase in overall maytansinoid exposure (AUC) compared to SPP-DM1 conjugates ([14]; area under the curve): ~5 fold
- half-life for clearance ([14]; plasma, conjugate, FIG. 11): approximately 320 hours
- survival / lethal toxicity ([15]; at 150 mg/kg): all mice in the SMCC-DM1 treated group survived
- maximum tolerated dose (MTD) ([15]; female CD-1 mice): > 150 mg/kg
- durability of cell cycle arrest (COLO205 cells): do not escape from the cell cycle block
- cell destroying activity (COLO 205 cell line): potent cell destroying activity
- cell destroying activity (Namalwa cells; Namalwa cultured separately): no activity
- bystander cell destroying activity toward Namalwa cells (Namalwa cells; co-cultures of COLO 205 and Namalwa cells): No cell destroying activity
- AUC | [16]: 40374.2 µg·h/mL
- CL | [16]: 7.2 mL/day/kg
- Vss | [16]: 0.1125 L/kg
- t1/2 | hour [16]: 13.26 days
